± gives the standard deviation of the averaged measurements.
What was measured:
hTERT-HMEC = experiment: percentage of EdU-negative (G0-arrested) nuclei per well, 72 h; higher = more G0 arrest; details: reference: sequence is the full UniProt precursor, the tested protein was the secreted form or ectodomain
MCF7 = experiment: as above; details: reference: sequence is the full UniProt precursor, the tested protein was the secreted form or ectodomain
[1] = protein concentration 0.0308571 µM
[2] = protein concentration 0.308571 µM
[3] = protein concentration 0.0102857 µM
[4] = protein concentration 0.102857 µM
[5] = protein concentration 0.0225 µM
[6] = protein concentration 0.02175 µM
[7] = protein concentration 0.2175 µM
[8] = protein concentration 0.00725 µM
[9] = protein concentration 0.0725 µM
[10] = protein concentration 0.01525 µM
[11] = protein concentration 0.1525 µM
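Further: secreted proteins added to cultured cells, EdU pulse at the end, nuclei found by Hoechst imaging, EdU status from nuclear versus surrounding ring intensity ratio, PBS as neutral control.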

MARLGNCSLTWAALIILLLPGSLEECGHISVSAPIVHLGDPITASCIIKQNCSHLDPEPQILWRLGAELQPGGRQQRLSDGTQESIITLPHLNHTQAFLSCCLNWGNSLQILDQVELRAGYPPAIPHNLSCLMNLTTSSLICQWEPGPETHLPTSFTLKSFKSRGNCQTQGDSILDCVPKDGQSHCCIPRKHLLLYQNMGIWVQAENALGTSMSPQLCLDPMDVVKLEPPMLRTMDPSPEAAPPQAGCLQLCWEPWQPGLHINQKCELRHKPQRGEASWALVGPLPLEALQYELCGLLPATAYTLQIRCIRWPLPGHWSDWSPSLELRTTERAPTVRLDTWWRQRQLDPRTVQLFWKPVPLEEDSGRIQGYVVSWRPSGQAGAILPLCNTTELSCTFHLPSEAQEVALVAYNSAGTSRPTPVVFSESRGPALTRLHAMARDPHSLWVGWEPPNPWPQGYVIEWGLGPPSASNSNKTWRMEQNGRATGFLLKENIRPFQLYEIIVTPLYQDTMGPSQHVYAYSQEMAPSHAPELHLKHIGKTWAQLEWVPEPPELGKSPLTHYTIFWTNAQNQSFSAILNASSRGFVLHGLEPASLYHIHLMAASQAGATNSTVLTLMTLTPEGSELHIILGLFGLLLLLTCLCGTAWLCCSPNRKNPLWPSVPDPAHSSLGSWVPTIMEEDAFQLPGLGTPPITKLTVLEEDEKKPVPWESHNSSETCGLPTLVQTYVLQGDPRAVSTQPQSQSGTSDQVLYGQLLGSPTSPGPGHYLRCDSTQPLLAGLTPSPKSYENLWFQASPLGTLVTPAPSQEDDCVFGPLLNFPLLQGIRVHGMEALGSF
percentage of EdU-negative (hTERT-HMEC; [1]): 5.21 ± 0.22%
percentage of EdU-negative (hTERT-HMEC; [2]): 10.7 ± 1.1%
percentage of EdU-negative (MCF7; [1]): 27.8 ± 0.38%
percentage of EdU-negative (MCF7; [2]): 29.5 ± 3%

MADKVRRQRPRRRVCWALVAVLLADLLALSDTLAVMSVDLGSESMKVAIVKPGVPMEIVLNKESRRKTPVIVTLKENERFFGDSAASMAIKNPKATLRYFQHLLGKQADNPHVALYQARFPEHELTFDPQRQTVHFQISSQLQFSPEEVLGMVLNYSRSLAEDFAEQPIKDAVITVPVFFNQAERRAVLQAARMAGLKVLQLINDNTATALSYGVFRRKDINTTAQNIMFYDMGSGSTVCTIVTYQMVKTKEAGMQPQLQIRGVGFDRTLGGLEMELRLRERLAGLFNEQRKGQRAKDVRENPRAMAKLLREANRLKTVLSANADHMAQIEGLMDDVDFKAKVTRVEFEELCADLFERVPGPVQQALQSAEMSLDEIEQVILVGGATRVPRVQEVLLKAVGKEELGKNINADEAAAMGAVYQAAALSKAFKVKPFVVRDAVVYPILVEFTREVEEEPGIHSLKHNKRVLFSRMGPYPQRKVITFNRYSHDFNFHINYGDLGFLGPEDLRVFGSQNLTTVKLKGVGDSFKKYPDYESKGIKAHFNLDESGVLSLDRVESVFETLVEDSAEEESTLTKLGNTISSLFGGGTTPDAKENGTDTVQEEEESPAEGSKDEPGEQVELKEEAEAPVEDGSQPPPPEPKGDATPEGEKATEKENGDKSEAQKPSEKAEAGPEGVAPAPEGEKKQKPARKRRMVEEIGVELVVLDLPDLPEDKLAQSVQKLQDLTLRDLEKQEREKAANSLEAFIFETQDKLYQPEYQEVSTEEQREEISGKLSAASTWLEDEGVGATTVMLKEKLAELRKLCQGLFFRVEERKKWPERLSALDNLLNHSSMFLKGARLIPEMDQIFTEVEMTTLEKVINETWAWKNATLAEQAKLPATEKPVLLSKDIEAKMMALDREVQYLLNKAKFTKPRPRPKDKNGTRAEPPLNASASDQGEKVIPPAGQTEDAEPISEPEKVETGSEPGDTEPLELGGPGAEPEQKEQSTGQKRPLKNDEL [Q9Y4L1]
percentage of EdU-negative (hTERT-HMEC; [3]): 6.45 ± 1.3%
percentage of EdU-negative (hTERT-HMEC; [4]): 35.3 ± 5.6%
percentage of EdU-negative (MCF7; [3]): 23.6 ± 1.2%
percentage of EdU-negative (MCF7; [4]): 30.4 ± 1.7%

MDPKGLLSLTFVLFLSLAFGASYGTGGRMMNCPKILRQLGSKVLLPLTYERINKSMNKSIHIVVTMAKSLENSVENKIVSLDPSEAGPPRYLGDRYKFYLENLTLGIRESRKEDEGWYLMTLEKNVSVQRFCLQLRLYEQVSTPEIKVLNKTQENGTCTLILGCTVEKGDHVAYSWSEKAGTHPLNPANSSHLLSLTLGPQHADNIYICTVSNPISNNSQTFSPWPGCRTDPSETKPWAVYAGLLGGVIMILIMVVILQLRRRGKTNHYQTTVEKKSLTIYAQVQKPGPLQKKLDSFPAQDPCTTIYVAATEPVPESVQETNSITVYASVTLPES
percentage of EdU-negative (hTERT-HMEC; [5]): 5.0759 ± 0.002%
percentage of EdU-negative (hTERT-HMEC; protein concentration 0.225 µM): 5.04 ± 0.53%
percentage of EdU-negative (MCF7; [5]): 24.3 ± 0.12%
percentage of EdU-negative (MCF7; protein concentration 0.225 µM): 23.1 ± 0.27%

MTSSGPGPRFLLLLPLLLPPAASASDRPRGRDPVNPEKLLVITVATAETEGYLRFLRSAEFFNYTVRTLGLGEEWRGGDVARTVGGGQKVRWLKKEMEKYADREDMIIMFVDSYDVILAGSPTELLKKFVQSGSRLLFSAESFCWPEWGLAEQYPEVGTGKRFLNSGGFIGFATTIHQIVRQWKYKDDDDDQLFYTRLYLDPGLREKLSLNLDHKSRIFQNLNGALDEVVLKFDRNRVRIRNVAYDTLPIVVHGNGPTKLQLNYLGNYVPNGWTPEGGCGFCNQDRRTLPGGQPPPRVFLAVFVEQPTPFLPRFLQRLLLLDYPPDRVTLFLHNNEVFHEPHIADSWPQLQDHFSAVKLVGPEEALSPGEARDMAMDLCRQDPECEFYFSLDADAVLTNLQTLRILIEENRKVIAPMLSRHGKLWSNFWGALSPDEYYARSEDYVELVQRKRVGVWNVPYISQAYVIRGDTLRMELPQRDVFSGSDTDPDMAFCKSFRDKGIFLHLSNQHEFGRLLATSRYDTEHLHPDLWQIFDNPVDWKEQYIHENYSRALEGEGIVEQPCPDVYWFPLLSEQMCDELVAEMEHYGQWSGGRHEDSRLAGGYENVPTVDIHMKQVGYEDQWLQLLRTYVGPMTESLFPGYHTKARAVMNFVVRYRPDEQPSLRPHHDSSTFTLNVALNHKGLDYEGGGCRFLRYDCVISSPRKGWALLHPGRLTHYHEGLPTTWGTRYIMVSFVDP
percentage of EdU-negative (hTERT-HMEC; [6]): 5.45 ± 1.1%
percentage of EdU-negative (hTERT-HMEC; [7]): 8.17 ± 1.2%
percentage of EdU-negative (MCF7; [6]): 25.1 ± 1%
percentage of EdU-negative (MCF7; [7]): 28.2 ± 1.3%

MRPPQCLLHTPSLASPLLLLLLWLLGGGVGAEGREDAELLVTVRGGRLRGIRLKTPGGPVSAFLGIPFAEPPMGPRRFLPPEPKQPWSGVVDATTFQSVCYQYVDTLYPGFEGTEMWNPNRELSEDCLYLNVWTPYPRPTSPTPVLVWIYGGGFYSGASSLDVYDGRFLVQAERTVLVSMNYRVGAFGFLALPGSREAPGNVGLLDQRLALQWVQENVAAFGGDPTSVTLFGESAGAASVGMHLLSPPSRGLFHRAVLQSGAPNGPWATVGMGEARRRATQLAHLVGCPPGGTGGNDTELVACLRTRPAQVLVNHEWHVLPQESVFRFSFVPVVDGDFLSDTPEALINAGDFHGLQVLVGVVKDEGSYFLVYGAPGFSKDNESLISRAEFLAGVRVGVPQVSDLAAEAVVLHYTDWLHPEDPARLREALSDVVGDHNVVCPVAQLAGRLAAQGARVYAYVFEHRASTLSWPLWMGVPHGYEIEFIFGIPLDPSRNYTAEEKIFAQRLMRYWANFARTGDPNEPRDPKAPQWPPYTAGAQQYVSLDLRPLEVRRGLRAQACAFWNRFLPKLLSATDTLDEAERQWKAEFHRWSSYMVHWKNQFDHYSKQDRCSDL
percentage of EdU-negative (hTERT-HMEC; [8]): 4.96 ± 0.24%
percentage of EdU-negative (hTERT-HMEC; [9]): 8.871 ± 0.06%
percentage of EdU-negative (MCF7; [8]): 25.5 ± 3.2%
percentage of EdU-negative (MCF7; [9]): 27.8 ± 2.5%

MPSSTAMAVGALSSSLLVTCCLMVALCSPSIPLEKLAQAPEQPGQEKREHASRDGPGRVNELGRPARDEGGSGRDWKSKSGRGLAGREPWSKLKQAWVSQGGGAKAGDLQVRPRGDTPQAEALAAAAQDAIGPELAPTPEPPEEYVYPDYRGKGCVDESGFVYAIGEKFAPGPSACPCLCTEEGPLCAQPECPRLHPRCIHVDTSQCCPQCKERKNYCEFRGKTYQTLEEFVVSPCERCRCEANGEVLCTVSACPQTECVDPVYEPDQCCPICKNGPNCFAETAVIPAGREVKTDECTICHCTYEEGTWRIERQAMCTRHECRQM [Q2TAL6]
percentage of EdU-negative (hTERT-HMEC; [10]): 5.49 ± 1.1%
percentage of EdU-negative (hTERT-HMEC; [11]): 7.17 ± 0.096%
percentage of EdU-negative (MCF7; [10]): 22.8 ± 3.1%
percentage of EdU-negative (MCF7; [11]): 25.17 ± 0.21%

From the supplement of paper PMC11316812
